Numbered stars: 1 amine (or outer) side, 2 acyl side, 3 side chain; on linkers, the order of the positions; unused ones are H or OH. Bridge positions count the residues as written; N and C are the ends. Side chains are listed from the residue outwards. Ends that are not written are not given here. * marks the point of attachment. C20 diacid = O=C(O)CCCCCCCCCCCCCCCCCCC(=O)*; γGlu = O=C(O)[C@H](CCC(=O)[*:2])N[*:1]
T1: rat calcitonin receptor (rat, UniProt P32214 25-516)
T1 construct: whole, on cells; Membranes prepared from transiently transfected BHK tk'ts 13 cells (Assay VIII); also called rCTR; rCT
T1 sequence (looked up): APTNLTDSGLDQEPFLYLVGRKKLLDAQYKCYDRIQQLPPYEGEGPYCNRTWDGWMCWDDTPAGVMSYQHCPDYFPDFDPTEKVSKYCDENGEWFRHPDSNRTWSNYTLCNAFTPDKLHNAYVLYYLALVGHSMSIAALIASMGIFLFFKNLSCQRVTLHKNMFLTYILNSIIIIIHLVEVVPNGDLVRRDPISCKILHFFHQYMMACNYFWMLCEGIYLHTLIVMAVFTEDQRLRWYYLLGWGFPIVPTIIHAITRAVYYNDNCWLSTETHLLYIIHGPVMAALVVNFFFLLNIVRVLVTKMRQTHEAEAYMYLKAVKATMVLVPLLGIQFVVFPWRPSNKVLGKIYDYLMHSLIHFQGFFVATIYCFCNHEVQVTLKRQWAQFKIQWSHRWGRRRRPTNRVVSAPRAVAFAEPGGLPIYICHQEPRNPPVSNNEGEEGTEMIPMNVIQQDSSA

T2: rat amylin receptor (rat calcitonin receptor + rat RAMP 3) (rat, UniProt P32214 25-516; Q9JJ73 23-147)
T2 construct: whole, on cells; Membranes prepared from transiently transfected BHK tk'ts 13 cells (Assay VI); also called rAmylin-R; rAmylin
T2 sequence (looked up) 1: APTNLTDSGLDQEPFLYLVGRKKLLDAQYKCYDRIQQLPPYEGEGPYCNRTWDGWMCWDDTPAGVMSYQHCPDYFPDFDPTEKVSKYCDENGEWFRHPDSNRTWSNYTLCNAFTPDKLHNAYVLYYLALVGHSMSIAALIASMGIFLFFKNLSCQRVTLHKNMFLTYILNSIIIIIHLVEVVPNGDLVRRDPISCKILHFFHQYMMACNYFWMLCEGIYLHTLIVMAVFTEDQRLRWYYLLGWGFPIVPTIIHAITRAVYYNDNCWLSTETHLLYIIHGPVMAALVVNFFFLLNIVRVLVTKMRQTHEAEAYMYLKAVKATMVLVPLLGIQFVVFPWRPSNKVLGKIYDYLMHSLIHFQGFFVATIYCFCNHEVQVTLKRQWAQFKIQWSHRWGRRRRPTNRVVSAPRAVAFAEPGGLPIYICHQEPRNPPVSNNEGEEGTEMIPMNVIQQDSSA
T2 sequence (looked up) 2: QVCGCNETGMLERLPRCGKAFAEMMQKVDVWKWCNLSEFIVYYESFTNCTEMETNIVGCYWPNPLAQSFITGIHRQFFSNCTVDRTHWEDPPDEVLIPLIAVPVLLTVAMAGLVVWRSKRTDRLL

T3: human calcitonin receptor (human, UniProt P30988 25-474)
T3 construct: whole, on cells; Membranes prepared from a stably transfected BHK cell line (Assay VII); also called hCTR; hCT
T3 sequence (looked up): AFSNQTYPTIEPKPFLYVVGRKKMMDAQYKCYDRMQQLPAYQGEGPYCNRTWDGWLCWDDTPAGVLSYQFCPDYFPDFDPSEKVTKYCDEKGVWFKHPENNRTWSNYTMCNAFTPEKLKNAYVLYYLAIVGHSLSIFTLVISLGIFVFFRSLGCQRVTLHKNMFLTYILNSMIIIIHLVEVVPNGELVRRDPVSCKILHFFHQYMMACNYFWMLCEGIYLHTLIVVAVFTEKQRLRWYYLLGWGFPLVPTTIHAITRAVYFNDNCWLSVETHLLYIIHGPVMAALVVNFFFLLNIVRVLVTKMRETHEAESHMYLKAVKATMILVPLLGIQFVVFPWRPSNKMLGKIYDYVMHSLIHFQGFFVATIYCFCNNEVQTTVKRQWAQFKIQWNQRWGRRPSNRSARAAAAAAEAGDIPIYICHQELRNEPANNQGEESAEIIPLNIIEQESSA

B1: N^ε1-[(4S)-4-carboxy-4-(19-carboxynonadecanoylamino)butanoyl]-[Arg17,Pro21,Pro27,Arg34]-h-amylin (peptide)
peptide: K([γGlu-C20 diacid])CNTATCATQRLANFLRHSSPNFGAIPSSTNVGRNTY-NH2
modifications: disulfide 2-7; N-terminus assumed
SMILES: CC[C@H](C)[C@H](NC(=O)[C@H](C)NC(=O)CNC(=O)[C@H](Cc1ccccc1)NC(=O)[C@H](CC(N)=O)NC(=O)[C@@H]1CCCN1C(=O)[C@H](CO)NC(=O)[C@H](CO)NC(=O)[C@H](Cc1c[nH]cn1)NC(=O)[C@H](CCCNC(=N)N)NC(=O)[C@H](CC(C)C)NC(=O)[C@H](Cc1ccccc1)NC(=O)[C@H](CC(N)=O)NC(=O)[C@H](C)NC(=O)[C@H](CC(C)C)NC(=O)[C@H](CCCNC(=N)N)NC(=O)[C@H](CCC(N)=O)NC(=O)[C@@H](NC(=O)[C@H](C)NC(=O)[C@@H]1CSSC[C@H](NC(=O)[C@@H](N)CCCCNC(=O)CC[C@H](NC(=O)CCCCCCCCCCCCCCCCCCC(=O)O)C(=O)O)C(=O)N[C@@H](CC(N)=O)C(=O)N[C@@H]([C@@H](C)O)C(=O)N[C@@H](C)C(=O)N[C@@H]([C@@H](C)O)C(=O)N1)[C@@H](C)O)C(=O)N1CCC[C@H]1C(=O)N[C@@H](CO)C(=O)N[C@@H](CO)C(=O)N[C@H](C(=O)N[C@@H](CC(N)=O)C(=O)N[C@H](C(=O)NCC(=O)N[C@@H](CCCNC(=N)N)C(=O)N[C@@H](CC(N)=O)C(=O)N[C@H](C(=O)N[C@@H](Cc1ccc(O)cc1)C(N)=O)[C@@H](C)O)C(C)C)[C@@H](C)O
notes: Analogue of human amylin; also called compound 79
B2: N^ε1-[(4S)-4-carboxy-4-(19-carboxynonadecanoylamino)butanoyl]-[His14,Arg17,Pro21,Pro27,Arg34]-h-amylin (peptide)
peptide: K([γGlu-C20 diacid])CNTATCATQRLAHFLRHSSPNFGAIPSSTNVGRNTY-NH2
modifications: disulfide 2-7; N-terminus assumed
SMILES: CC[C@H](C)[C@H](NC(=O)[C@H](C)NC(=O)CNC(=O)[C@H](Cc1ccccc1)NC(=O)[C@H](CC(N)=O)NC(=O)[C@@H]1CCCN1C(=O)[C@H](CO)NC(=O)[C@H](CO)NC(=O)[C@H](Cc1c[nH]cn1)NC(=O)[C@H](CCCNC(=N)N)NC(=O)[C@H](CC(C)C)NC(=O)[C@H](Cc1ccccc1)NC(=O)[C@H](Cc1c[nH]cn1)NC(=O)[C@H](C)NC(=O)[C@H](CC(C)C)NC(=O)[C@H](CCCNC(=N)N)NC(=O)[C@H](CCC(N)=O)NC(=O)[C@@H](NC(=O)[C@H](C)NC(=O)[C@@H]1CSSC[C@H](NC(=O)[C@@H](N)CCCCNC(=O)CC[C@H](NC(=O)CCCCCCCCCCCCCCCCCCC(=O)O)C(=O)O)C(=O)N[C@@H](CC(N)=O)C(=O)N[C@@H]([C@@H](C)O)C(=O)N[C@@H](C)C(=O)N[C@@H]([C@@H](C)O)C(=O)N1)[C@@H](C)O)C(=O)N1CCC[C@H]1C(=O)N[C@@H](CO)C(=O)N[C@@H](CO)C(=O)N[C@H](C(=O)N[C@@H](CC(N)=O)C(=O)N[C@H](C(=O)NCC(=O)N[C@@H](CCCNC(=N)N)C(=O)N[C@@H](CC(N)=O)C(=O)N[C@H](C(=O)N[C@@H](Cc1ccc(O)cc1)C(N)=O)[C@@H](C)O)C(C)C)[C@@H](C)O
notes: Analogue of human amylin; also called compound 85
B3: N^ε1-[(4S)-4-carboxy-4-(19-carboxynonadecanoylamino)butanoyl]-[His14,Arg17,Pro21,Pro27,His34]-h-amylin (peptide)
peptide: K([γGlu-C20 diacid])CNTATCATQRLAHFLRHSSPNFGAIPSSTNVGHNTY-NH2
modifications: disulfide 2-7; N-terminus assumed
SMILES: CC[C@H](C)[C@H](NC(=O)[C@H](C)NC(=O)CNC(=O)[C@H](Cc1ccccc1)NC(=O)[C@H](CC(N)=O)NC(=O)[C@@H]1CCCN1C(=O)[C@H](CO)NC(=O)[C@H](CO)NC(=O)[C@H](Cc1c[nH]cn1)NC(=O)[C@H](CCCNC(=N)N)NC(=O)[C@H](CC(C)C)NC(=O)[C@H](Cc1ccccc1)NC(=O)[C@H](Cc1c[nH]cn1)NC(=O)[C@H](C)NC(=O)[C@H](CC(C)C)NC(=O)[C@H](CCCNC(=N)N)NC(=O)[C@H](CCC(N)=O)NC(=O)[C@@H](NC(=O)[C@H](C)NC(=O)[C@@H]1CSSC[C@H](NC(=O)[C@@H](N)CCCCNC(=O)CC[C@H](NC(=O)CCCCCCCCCCCCCCCCCCC(=O)O)C(=O)O)C(=O)N[C@@H](CC(N)=O)C(=O)N[C@@H]([C@@H](C)O)C(=O)N[C@@H](C)C(=O)N[C@@H]([C@@H](C)O)C(=O)N1)[C@@H](C)O)C(=O)N1CCC[C@H]1C(=O)N[C@@H](CO)C(=O)N[C@@H](CO)C(=O)N[C@H](C(=O)N[C@@H](CC(N)=O)C(=O)N[C@H](C(=O)NCC(=O)N[C@@H](Cc1c[nH]cn1)C(=O)N[C@@H](CC(N)=O)C(=O)N[C@H](C(=O)N[C@@H](Cc1ccc(O)cc1)C(N)=O)[C@@H](C)O)C(C)C)[C@@H](C)O
notes: Analogue of human amylin; also called compound 81
B4: N^ε1-[(4S)-4-carboxy-4-(19-carboxynonadecanoylamino)butanoyl]-[Arg17,Pro21,Pro27,His34]-h-amylin (peptide)
peptide: K([γGlu-C20 diacid])CNTATCATQRLANFLRHSSPNFGAIPSSTNVGHNTY-NH2
modifications: disulfide 2-7; N-terminus assumed
SMILES: CC[C@H](C)[C@H](NC(=O)[C@H](C)NC(=O)CNC(=O)[C@H](Cc1ccccc1)NC(=O)[C@H](CC(N)=O)NC(=O)[C@@H]1CCCN1C(=O)[C@H](CO)NC(=O)[C@H](CO)NC(=O)[C@H](Cc1c[nH]cn1)NC(=O)[C@H](CCCNC(=N)N)NC(=O)[C@H](CC(C)C)NC(=O)[C@H](Cc1ccccc1)NC(=O)[C@H](CC(N)=O)NC(=O)[C@H](C)NC(=O)[C@H](CC(C)C)NC(=O)[C@H](CCCNC(=N)N)NC(=O)[C@H](CCC(N)=O)NC(=O)[C@@H](NC(=O)[C@H](C)NC(=O)[C@@H]1CSSC[C@H](NC(=O)[C@@H](N)CCCCNC(=O)CC[C@H](NC(=O)CCCCCCCCCCCCCCCCCCC(=O)O)C(=O)O)C(=O)N[C@@H](CC(N)=O)C(=O)N[C@@H]([C@@H](C)O)C(=O)N[C@@H](C)C(=O)N[C@@H]([C@@H](C)O)C(=O)N1)[C@@H](C)O)C(=O)N1CCC[C@H]1C(=O)N[C@@H](CO)C(=O)N[C@@H](CO)C(=O)N[C@H](C(=O)N[C@@H](CC(N)=O)C(=O)N[C@H](C(=O)NCC(=O)N[C@@H](Cc1c[nH]cn1)C(=O)N[C@@H](CC(N)=O)C(=O)N[C@H](C(=O)N[C@@H](Cc1ccc(O)cc1)C(N)=O)[C@@H](C)O)C(C)C)[C@@H](C)O
notes: Analogue of human amylin; also called compound 77
B5: N^ε1-[(4S)-4-carboxy-4-(19-carboxynonadecanoylamino)butanoyl]-[Arg17,Pro21,Pro27,His35]-h-amylin (peptide)
peptide: K([γGlu-C20 diacid])CNTATCATQRLANFLRHSSPNFGAIPSSTNVGSHTY-NH2
modifications: disulfide 2-7; N-terminus assumed
SMILES: CC[C@H](C)[C@H](NC(=O)[C@H](C)NC(=O)CNC(=O)[C@H](Cc1ccccc1)NC(=O)[C@H](CC(N)=O)NC(=O)[C@@H]1CCCN1C(=O)[C@H](CO)NC(=O)[C@H](CO)NC(=O)[C@H](Cc1c[nH]cn1)NC(=O)[C@H](CCCNC(=N)N)NC(=O)[C@H](CC(C)C)NC(=O)[C@H](Cc1ccccc1)NC(=O)[C@H](CC(N)=O)NC(=O)[C@H](C)NC(=O)[C@H](CC(C)C)NC(=O)[C@H](CCCNC(=N)N)NC(=O)[C@H](CCC(N)=O)NC(=O)[C@@H](NC(=O)[C@H](C)NC(=O)[C@@H]1CSSC[C@H](NC(=O)[C@@H](N)CCCCNC(=O)CC[C@H](NC(=O)CCCCCCCCCCCCCCCCCCC(=O)O)C(=O)O)C(=O)N[C@@H](CC(N)=O)C(=O)N[C@@H]([C@@H](C)O)C(=O)N[C@@H](C)C(=O)N[C@@H]([C@@H](C)O)C(=O)N1)[C@@H](C)O)C(=O)N1CCC[C@H]1C(=O)N[C@@H](CO)C(=O)N[C@@H](CO)C(=O)N[C@H](C(=O)N[C@@H](CC(N)=O)C(=O)N[C@H](C(=O)NCC(=O)N[C@@H](CO)C(=O)N[C@@H](Cc1c[nH]cn1)C(=O)N[C@H](C(=O)N[C@@H](Cc1ccc(O)cc1)C(N)=O)[C@@H](C)O)C(C)C)[C@@H](C)O
notes: Analogue of human amylin; also called compound 60

Columns and labels:
rat calcitonin receptor [1] = target: T1, rat calcitonin receptor; test: ratio of binding IC50s: rat calcitonin receptor / rat amylin receptor (reference)
[2] = target: T2, rat amylin receptor (rat calcitonin …); test: SPA competition vs 125I-rat amylin, membranes of BHK cells with rat calcitonin receptor + rat RAMP3 (Assay VI)
[3] = target: T3, human calcitonin receptor; test: ratio of binding IC50s: human calcitonin receptor / human amylin receptor (reference)
Method in brief: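 Competition binding by SPA with cell membranes (35 ng/μL) and SPA beads in 50 mM Hepes pH 7.4 with 1 mM CaCl2, 5 mM MgCl2, 0.1% OA and 0.02% Tween20. Incubated 120 min at 25 °C with shaking, then counted.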

rat calcitonin receptor [4] = target: T1, rat calcitonin receptor; test: SPA competition vs 125I-calcitonin, membranes of BHK cells with rat calcitonin receptor (Assay VIII)

| Binder | Ratio rCT/rAmylin binding (rat calcitonin receptor [1]) | IC50 [2] | Ratio hCT/hAmylin binding [3] | IC50 (rat calcitonin receptor [4]) |
| --- | --- | --- | --- | --- |
| B1 | 21.5 | 1.65 nM | 46.1 | 35.5 nM |
| B2 | 46.5 | 3.14 nM | 91.8 | 146 nM |
| B3 | 42.9 | 1.42 nM | 87.2 | 61.1 nM |
| B4 | 137 | 1.5 nM | 118 | 205 nM |
| B5 | 122 | 0.215 nM | 45.2 | 26.3 nM |

From patent publication US20140087995A1 (published 2014)
